{"source": "paper PMC8706816", "about": "“Hydrogen Sulfide Improves the Cold Stress Resistance through the CsARF5-CsDREB3 Module in Cucumber”", "binders": {"B1": {"name": "CsDREB3 promoter probe (dsDNA)", "DNA 1": "ATCGGGGTAAGAGACATTAAGAAACA", "DNA 2": "TGTTTCTTAATGTCTCTTACCCCGAT"}}, "target": "T1, CsARF5-HIS (Cucumis sativus, UniProt A0A0A0LE69 1-948)", "T1 sequence": "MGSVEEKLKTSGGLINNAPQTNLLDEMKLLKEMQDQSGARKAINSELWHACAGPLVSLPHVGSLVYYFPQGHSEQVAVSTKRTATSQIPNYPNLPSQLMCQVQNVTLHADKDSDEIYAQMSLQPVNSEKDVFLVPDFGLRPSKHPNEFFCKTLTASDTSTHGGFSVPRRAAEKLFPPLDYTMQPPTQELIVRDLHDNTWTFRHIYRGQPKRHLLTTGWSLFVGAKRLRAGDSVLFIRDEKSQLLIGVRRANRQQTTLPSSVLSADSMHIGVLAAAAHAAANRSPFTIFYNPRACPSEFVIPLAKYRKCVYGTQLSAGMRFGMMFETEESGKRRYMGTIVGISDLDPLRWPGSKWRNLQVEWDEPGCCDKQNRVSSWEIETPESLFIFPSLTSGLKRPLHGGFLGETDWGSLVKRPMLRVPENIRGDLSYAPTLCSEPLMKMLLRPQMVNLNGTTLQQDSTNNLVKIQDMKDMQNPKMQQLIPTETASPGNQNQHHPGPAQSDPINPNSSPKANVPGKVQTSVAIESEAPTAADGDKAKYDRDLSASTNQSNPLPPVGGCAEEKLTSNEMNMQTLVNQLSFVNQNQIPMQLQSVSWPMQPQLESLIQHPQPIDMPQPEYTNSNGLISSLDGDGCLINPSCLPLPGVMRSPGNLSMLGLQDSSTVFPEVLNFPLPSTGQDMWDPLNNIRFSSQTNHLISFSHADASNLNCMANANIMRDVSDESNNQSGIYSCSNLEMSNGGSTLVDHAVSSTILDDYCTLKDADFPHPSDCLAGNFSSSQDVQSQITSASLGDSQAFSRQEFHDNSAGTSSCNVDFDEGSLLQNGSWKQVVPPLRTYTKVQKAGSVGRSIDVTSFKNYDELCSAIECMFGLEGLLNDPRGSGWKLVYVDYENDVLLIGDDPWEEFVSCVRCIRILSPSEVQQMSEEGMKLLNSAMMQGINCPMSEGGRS", "assay": "EMSA; EMSA: protein and probe incubated at 24 °C for 30 min, nondenaturing acrylamide gel; buffer, salt and pH not stated", "details": "protein: recombinant; tags: His; label: biotin", "data": [{"binder": "B1", "values": [{"measurement": "binding result", "result": "binds"}]}]}
